Experiment: label from the status in PepcDB records

| Sequence | protein production |
| --- | --- |
| MHLQKLKNIVWTKRIGHLFERVTDIENIKRAIKRAAKRKTHRPSVQRILNDIDSYARKIQEMLVNETFVPAKYTIREIYDGIKKKKRVIAVPRFYPDQCIHHAFVQVFREIVEHGADKFSCGCVPGKGTDGARKMIKHWIKSDPIGTSKVLKLDVHHCYPTMNHEALRQKLEKKIKDRKLLNLAFKLIASYQQPMADHTRMLPEVDAVGIPVGLYTSPWFCNFFFQDIDHMIAEKTGAKHHTRYVDDIVLFDSNKRRLHKALRMIADELRKVKMQVKANWQVFPLKDRPLDFLGYKFHAGAWTTLRKSIMFRISHKAKKISKISYISPTNASGMISYMGFIYNSDSWNFWKERVKPFINLKLLKGVVSNENRKQHQAACAA | failed |
| MSLTRTQTYRATIESDIESYLKKAIPIRAPESVFEPMHHLTFAAPRTSASALCVAACELVGGDRSDAMAAAAAVHLMHVAAYTHENLPLTDGPMSKSEIQHKFDPNIELLTGDGIIPFGLELMARSMDPTRNNPDRILRAIIELTRVMGSEGIVEGQYHELGLNQLNDLELIEYVCKKKEGTLHACGAACGAILGGCDEDKIEKLRRFGLYVGTVQGLLGKNRSGFEGRIKELKELAVKELESFGGEKIELIRGVFELEHSLAGVEGHHHHHH | not failed |
| MIFSFIFKVAVISSSGALAPGPLTAATAAIGVKRGWKGGFWVSVGHAAVELPLVILIATGVAVVLTHSSALSLLSVAGGVMLLSFAFLTAKSAFSKTEEKAESSANPFSTGVALSALNPFFIAWWAGVGAVLITEAISLWGYAGIAVLYLSHVWLDFAWLILLAHLTSMAIFSAKAYRALLVALAALVFLFGVDFLHYGLFSKHLLPI | failed |
| MTRPLRWWKRACPGAALRRDVNAFPPPSLAKLSAVFTIRRQPELDRRPQGASAGGALQALIAALPFALRPSRLSRQAKRPWTRACRRRLPATVGAGSLAAMDSAQPNTAAARYKSFAAFYPFYMTEHANPVSRRLHVVGTSLVIVCLVLGVFRDWRFFIAAPVIGYGFAWIGHFVFEKNRPATFKYPVYSLMGDFRLWFETVTGRRKF | failed |
| HRSDPQIAICLDCLRNNGQSGDNVVKGLMKKFIRCSTRVTVGTIKKFLSLKLKLPSSYELDVLCNGEIMGKDHTMEFIYMTRWRLRGENFRCLNCSASQVCSQDGPLYQSYPMVLQYR | failed |
| MNENEQKAGSVADQKSKIRERYKGIDPDELDVIPALPQEDIFAVENEQRVAVYARVSTDDPRQTSSYELQKNHYHDVISKSPNWKLVQIYADEGISGTSLQHRDQFKLMIEDCKKGQIDLIVTKSVSRFARNVVDCIGYVRELLSLPHPVGVFFETERLNTFDPKSEMVLSFMATLAQEESHTKSEIMNASIEMRFRRGIFLTPILLGYDHDEDGNLIINEGEAKIVKLIFMMYLNGCTCQEIADTLTELGCETKKGNTVWSPGSILQILQNERHCGDVLAHKTYTPNYLNHKSKKNMQNRPQYRKRDHHEAIISRDDFIAVQRLISNAKYGNKGILPQLKVIPGGVLKGFVSINPRWAGFKETDYMNASSSVYDGTEQSGPSSGHVEVKSGEFDLRGYEIARSQFFDSTDRITVTFSQGDIRFSAPAVRKLDSTLVELLIHPKKLVFAVRNAGKDCRNAMQWSKKKDGKNSPREISGTAFLPTLYSLLGWNDDCRYRITGVKRGSGNDAVLLFNLSEPEIFIPNDMVGAPDADPAVKPFTDNQQRNVRAYPPDWADTFGSNYYSHAQAEELAGFTGRKDPDTSHAPVTYNDTDIQVTSKNDIEKNIKQIMSDMKENTDEHTDKR | failed |
| MGGGDGRRIDAFVSYSRAADSRLAPSIQRGLARLAKKWYRTRALNVFRDQTDLSASHALGASIERALADARFFVLLASPAAAESKWVAKEIEFWQRNRTSDTFLVALTDGTIRWDDEAGDFDWSVTDALPRSLSGYFEAEPLWQDLTWSRDADRLSLWHAGFRDAVATLAAPIHGSSKRALDNAEVKEHRALLLVGALATALILTLAVSFGIQYWFATAERDRANANARDATVMSAIQRAQVELADAETGYDVSAYRRLMAARSLAGRPSVEGAAYDAALDAAYSRPNLLRVTEVDSGPDSRAAMTVDGGRVAFGGKEQPTLWSPGTGRPSGPALEAAETTDSKALALAFSRDGKRLAAAYEAAVVLWDVASGKKINEFATDRRTTTSLALSPDGTTVAVAGGGLRIWDAGSGRRIGEPLGVTGDRVVFSPDGRKLAFDALNDGGSEVHVRGVGAEGAGEVVIPYPHDVISGIAFTPDTDALAVGTEDGGLRLWDPDSGAAEGRAMSGHQGAIRAIAFAAGGSRIATAGADRTIRQWNAETGSPIGFPLTGHAGPVDFIAFSRGGSELVSLGEDATLRRWDAGNALLRTGPDDASAPDALAVAPRGAKVAVGGREGVRVFNQETGVQVAALDLPQGVLSLSYSPDGTSLLIVSPDALRLWEEGAEARTVTLDSSVGPVAGAAFMPHGRQIVVGSYAGKLLFEDLDDEATGTPGASIDITCAARHLAVSQDGMQVAYACDDTGGVADAEAGGVRTFEAEDRVSALVISPDGRTLILGTLDGTLWRLEHGAEALVGVGVHRGAVRSVAYGPDGRWFASAGEDGSVVVHPHGAREISARIPAHTGPVEAVAFSGDGSRLISLGADKAARVWHVFRDPPGDLCERITYNMSESDWKKWISDSFGYRDQCAGKPRAHG | failed |
| MGEKPWQPLLQSFEKLSNCVQTHLSNFIGIKNTPPSSQSTIQNPIISLDSSPPIATNSSSLQKLPLKDKSTGPVTKEDLGRATWTFLHTLAAQMTILSRMYPCRECADHFKEILRSNPAQAGSQEEFSQWLCHVHNTVNRSLGKLVFPCERVDARWGKLECEQKSCDLHGTSMDF | failed |
| MKVFIAGGRGRVGSLLADNLEAKGIEVVSGGLEDGIDVISGKGLTEALAGVDTIVNVLNTPRFDAEGAISFFEGAINNLTAEGERAGVRHHIVLSIVGVGQGDASEVGYYLGKVAQEKAVRSASIPATIIRATQFQSYIPVLIDQHTVDGKVIAPRSFVQPVELDEVIELLAEAATTLEPGSEVEIAGPDRFYHDDLFRATLADRGDDREVVTVDAEGAPDVMVPRGAYRTGTVRYPITGIPTV | failed |
| MRSPYLIGVFLAAGKSRRMGQNKLALPLKGENIGSLSLKTALSSRLDHVLVVERTEHASLEWIGAPYHAPPFQKRWSLHVCQDAEKGQGHSVSSGVRKAESMGADGIVILLADQPQLSVDHLNALVALAPESFAVSSFLGAFTPPIYFSSTCFPYVKGLKGDEGARRLLKSGQLGAGAVLEAKDSGELDDIDTPRGILEHHHHHH | not failed |
| ARLVQLSRHSIAFPSPEGALREPNGLLALGGDLSPARLLMAYQRGIFPWFSPGDPILWWSPDPRAVLWPESLHISRSMKRFHKRSPYRVTMNYAFGQVIEGCASDREEGTWITRGVVEAYHRLHELGHAHSIEVWREDELVGGMYGVAQGTLFCGESMFSRMENASKTALLVFCEEFIGHGGKLIDCQVLNDHTASLGACEIPRRDYLNYLNQMRLGRLPNNFWVPRCLFSPQE | not failed |
| MAAYQVLIVGAGFSGAETAFWLAQKGVRVGLLTQSLDAVMMPFLPPKPPFPPGSLLERAYDPKDERVWAFHARAKYLLEGLRPLHLFQATATGLLLEGNRVVGVRTWEGPPARGEKVVLAVGSFLGARLFLGGVVEEAGRLSEASYPDLLEDLSRLGFRFVEREGEVPETPSTPGYRVRYLAFHPEEWEEKTFRLKRLEGLYAVGLCVREGDYARMSEEGKRLAEHLLHELG | not failed |
| MTNPETASDNSRDLVLVRRFDAPCDLVFRAWTDPKALAQWCGPHGFKAVGDRLEAWPGGRHRACLIAPDGEEHWVGGKYLEVEPPHRLVFTHAWETGAGETSPETIVTITLRESDGGTEMTFRQSGFASVSSLEGHESGWSQSFERLSSFLGTGSEGLNHA | failed |
| MTDAHTVCPKFESAFQLLGKRWTGLIINVLLTGPKRFKQVAAEIPQMSDRVLAERLKELEEMDICLRQVYPETPVRIEYELTEKGKALQEVMLEVQCWADKWVEVPN | failed |
| MTADLFDGLDDAPRRQDIAPGAALLSGFARANERELLAAIDAVVARAPFRHMMTPGGHTMSVAMTSCGSVGWVTDRRGYRYSPNDPDSATPWPKMPAVLRDLAQRAAADVGFAGFDPDACLINRYVPGAKMALHQDKDEADFSAPIVSVSLGLPAIFQFGGMARSDKPRRYELRHGDVLVWGGPSRLVYHGVLTLKDGEHPLLGRQRINLTFRKAL | failed |
| MLKKGNEMKAVIVYASVHHGNTKKIEEAMASVISADVIDVTRKIKPDLSGYDVIGFVSGVYFHTFHEGIKKCIEENMSSKGQKVFLVATCGLGYRDYTKGMKDTLAKKDVLCMGSFQCRGWDTYGIFGKIGGIAKKHPNDRDLKEAQEFVLKTVCKTNNLEHHHHHH | failed |
| MAVYTDITEDELRNFLTQYDVGSLTSYKGIAEGVENSNFLLHTTKDPLILTLYEKRVEKNDLPFFLGLMQHLAAKGLSCPLPLPRKDGELLGELSGRPAALISFLEGMWLRKPEAKHCREVGKALAAMHLASEGFEIKRPNALSVDGWKVLWDKSEERADEVEKGLREEIRPEIDYLAAHWPKDLPAGVIHADLFQDNVFFLGDELSGLIDFYFACNDLLAYDVSICLNAWCFEKDGAYNVTKGKALLEGYQSVRPLSEAELEALPLLSRGSALRFFLTRLYDWLTTPAGALVVKKDPLEYLRKLRFHRTIANVAEYGLAGE | not failed |
| MMAERPQPVAAPEEDEIDLGQLLGQIWHGKLWIGSATLAAGMLGLAWLANTAPTYRADTLLQLEEKASPLALPTALSELAGGEARSATEVEILRSRLVLGEAVAAFHLDWEAKPLRAPLVGQAVASGVLPLPEVEGLIRYDRGDSRIRLDLLEVPPEWVEEPILLTAMGEGQFALLLPDGREETGEVGRPLAVPDRGFGLRIGALEGVRGRQFVIRQLDETGAIGALRDRLTVAERGKQSSILEVGLTGRDPAEVQRTLGGIAEAYLRQNMTRSAAEAESSLEFIEGQLPEAQKAVRAAEDRLNAYRQAQQAIDLGFEGQSLLTQISAIETELRQLADQEEEIANRYTSNHPTYQRLLAMRGRLEERLAALRKEVSNLPETQREVFNFTRDLEVAQEVYLQLLNRAQELRVVKASTIGNVRIVDGARTAPEPVAPRRGRTLALALLLGALSGTGLVLGRAWLRRSVRGPEELDRLGLPVFATVLFAPAAVGNRKGRGLLPILALSDPNSATVEGIRSLRTSLHFGMLDAGSRSIALTSSAPAAGKSFTSVNLAVVAAQAGQSVCLIDADLRRGHLRRYFAVAKGTPGLAEYLAGEAELDELLRPGPVEGLAFLSTGQLPPNPSELLMRPRLAELVAELDRRFDLSIFDAPPVLAVTDPVVIGRAVGATIAVVRHDVTGLGEVEALIRQLQGAGVKPAGAVLNAYRPQRGSGRYGYGYGYRYRYDTGYRPQSGD | failed |
| KQLLTLKIKCSNQPERQILEKQLPDSMTVQKVKGLLSRLLKVPVSELLLSYESSKMPGREIELENDLQPLQFYSVENGDCLLVR | not failed |
| GDGEEYTFWDPEYAGLQNGLKAVLPNAHNYITQFSANERRYIVYSTSSTQPGTYYFGDRDEKVLFPIAERYSQLSTEQLADTQYLSYEARDKLKIDAYLTVPKGFKAKHLPTIIFPHGGPISYDSNDFDYWAQFFANRGYAVFRMNFRGSAGYGYEFMKAGLKSWGLEMQNDVEDGTRYLINQGISDPQRICIVGASYGGYAALMGAAMTPDLYRCAVSVAGVTDVANLVRSSRRFTNYEVVKEQIGDDFNVLYERSPISKADKITIPVLLLHGDKDRVVKVQHSREMFDELKSRKKNVEYIELENGGHYLSNNDHRLTTFKALDKFLADNLK | failed |
| MPLKRLGHRVLGLVLAAMLLYGGLAPPVRNFFALPWQQRLPAAAPISLPWELPPGLARQVEVKVNSGDWSRATTGDFPRWLQLQLKLFGFIPLKNITIQLVQPVDVSPGGQAIGVFLKTEGVQVVGQAAIVDERGNKVYLARQAGLETGDAIIAIDGQKVTSDQEVANLINAAGQANRQARITVKREGHLLTLNIHPRYCQETGRYRIGVYVRDSTAGVGTLTFYDQNKGVFGALGHVVTGSDGQTAMDISGGRIVAAAIQGIHQGYRGQPGEKLGVFLENGQFSGTIQKNTIVGIFGTITGKLPGNKEIPVALADTVHPGPAEILTVIEGEKVESFQVEIERVMPHQRASGKGLVLRITDPRLLAVTGGIIQGMSGSPIIQDGQLAGAVTHVFINDPTRGYGVLAEWMLQETELVPKDKARGATVETPGSFLFVVFCVG | failed |

From a protein production outcome set (Wang et al. 2014)
